Substrate: O=c1cc(-c2ccccc2)oc2cc(O)cc(O)c12
Assay: cells, lysate or membranes
Details: 1 mM NADPH, 100 mM sodium phosphate pH 7.9, 0.5 mM reduced glutathione, 28°C, chrysin 0.1-5 μM

Protein	Km (30 min) [µM]	Km (3 min) [µM]
SbCYP82D2 (Scutellaria baicalensis) (protein) MLYDNSQYLAMEFSSAIYGAIAFFLFLYYCLLYTTSSKPNTRAYKAPPEAGGARLFSGHLHLMAGGTTGELPHINLANLADKHGPVFTIRLGVKRALVVSSWESAKELFTTCDVAVSSRPRMKAAKLLGYDFAMFGFAPYGAYWRELRKLISVELLSTRRMELQKEVRDSETRESIKELYKLWEERSEGSDSVLVDMKQWFGDLNLNVVLRMVAGKRWIGPETGRWREVLRDFFYLAGMFVPADAFPFLGWLDLGGHEKRMRQTAKELDGIVGGWVAEHREKEYSGEDKPKDFVDVMLSVVQGSSLRADYDADTIIKATCEALIVGGSDTTTVMLIWTLSFLLNNRHVLRKAQEELDKHVGRERRVNQSDINNLVYLQAIVKETLRLYPAGPIGGIREFTQDCQVGGYHVPKGTWLIVNLWKLHRDPKVWSEDCLEFRPERFLNKNIDVRGQDFELIPFGGGRRICPGANFGLHMLHLVLANLLQAFELTTVSDQVIDMTESAGMTNMKATPLNVLVAPRLSPTLY	1.051	
SbCYP82D1.1 (Scutellaria baicalensis) (protein) MELSSVIYGAIALLSLFYCYLHFSKPKKSSLNAPPEAGGARFITGHLHLMDGRSASDKLPHINLGLLADQHGPIFTIRLGVHRAVVVSSWELAKEIFTTHDTAVMARPRLIADDYLSYDGASLGFSPYGPYWREIRKLVTTELLSARRIELQRATRVREITQFTGELYKLWEEKKDGSGRVLVDMKQWLGNLSLNLVSRMVVGKRFYGGDDSETTKRWRGVMREFFQLIGQFIPGDGLPFLRWLDLGGFEKRTRDTAYELDKIIAMWLAEYRKREYSGDDKEQCFMALMLSLVQANPTLQLHYDADTIIKATCQVLISAASDTTTVILIWVISLLLNNADVLKKVQEELDEQVGRERRVEESDISNLPYLQAVVKETMRLYPPAPFAGVRAFSEDCTVGGYHIQKGTFLIVNLWKLHRDPRVWSDDALEFKPQRFFDKKVEVKGQDFELMPFGGGRRMCPGSNLGMHMVHFVLANILQAFDITTGSTVDMTESVGLTNMKATPLDAILTPRLSPTLY		0.121

Source: article PMC5770198
